Test results: PMC11263335

Assays:
[1] = target: shrimp hemocyanin (SHC) from Litopenaeus vannamei (Litopenaeus vannamei) (UniProt Q26180); test: SEC; purified SHC dissolved in PBS, Superdex-200 column, size by standard proteins
[2] = target: shrimp hemocyanin (SHC) from Litopenaeus vannamei (Litopenaeus vannamei) (UniProt Q26180); test: SEC + other: transmission electron microscopy (uranyl acetate stain); purified SHC in PBS; Superdex-200 elution and particle diameters on a carbon-coated grid (FEI F20, 120 kV), compared with AlphaFold models of monomer and tetramer

Q: Which percent of SHC eluting between 158 and 440 kDa [1] does the source give for “shrimp hemocyanin (SHC) from Litopenaeus vannamei (from UniProt Q26180 1-662) (natural protein)” here?
A: The percent of SHC eluting between 158 and 440 kDa was 80%.

Q: And the stoichiometry N [2]?
A: Its stoichiometry N is 4.
